Reference: paper PMC3596305, “Escherichia coli NemA Is an Efficient Chromate Reductase That Can Be Biologically Immobilized to Provide a Cell Free System for Remediation of Hexavalent Chromium” (PLoS ONE, 2013)

Test system: [O]=[Cr](=[O])([OH])[OH]
Assay: purified protein
Conditions: 1 mM NADH, 50 mM Tris-Cl pH 7.0, 22°C

Row | Substance | Km | kcat | kcat/Km
1 | ChrR_St (Salmonella enterica subsp. enterica serovar Typhi) | 37 ± 2 µM | 0.031 s⁻¹ | 830 M⁻¹ s⁻¹
2 | NfsA_St (Salmonella enterica subsp. enterica serovar Typhi) | 180 µM | 0.02 s⁻¹ | 140 M⁻¹ s⁻¹
3 | NfsB_St (Salmonella enterica subsp. enterica serovar Typhi) | 320 ± 120 µM | 0.54 s⁻¹ | 1700 M⁻¹ s⁻¹
